{"source": "IntAct's records for PubMed 29040270", "parents": {"B1": {"name": "Rho-related GTP-binding protein RhoE (Homo sapiens), P61587 (parent)", "chain": "MKERRASQKLSSKSIMDPNQNVKCKIVVVGDSQCGKTALLHVFAKDCFPENYVPTVFENYTASFEIDTQRIELSLWDTSGSPYYDNVRPLSYPDSDAVLICFDISRPETLDSVLKKWKGEIQEFCPNTKMLLVGCKSDLRTDVSTLVELSNHRQTPVSYDQGANMAKQIGAATYIECSALQSENSVRDIFHVATLACVNKTNKNVKRNKSQRATKRISHMPSRPELSAVATDLRKDKAKSCTVM"}}, "key": {"[1]": {"variants_of": "B1", "details": "with plxb1_human PLXNB1, O43157"}, "[2]": {"variants_of": "B1", "details": "with plxb2_human PLXNB2, O15031"}}, "data": [{"variant": "MKERRASQKLSSKSIMDPNQNVKCKIVVVGDSQCGKTALLHVFAKDCFPENYVPTVFENYTASFEIDTQRIELSLWDTSGSPYYDRVRPLSYPDSDAVLICFDISRPETLDSVLKKWKGEIQEFCPNTKMLLVGCKSDLRTDVSTLVELSNHRQTPVSYDQGANMAKQIGAATYIECSALQSENSVRDIFHVATLACVNKTNKNVKRNKSQRATKRISHMPSRPELSAVATDLRKDKAKSCTVM", "note": "[N86R]", "values": [{"measurement": "effect of a mutation on the interaction", "setting": "[1]", "result": "with no effect"}, {"measurement": "effect of a mutation on the interaction", "setting": "[2]", "result": "with no effect"}]}, {"variant": "MKERRASQKLSSKSIMDPNQNVKCKIVVVGDSQCGKTALLHVFAKDCFPENYVPTVFENYTASFEIDTQRIELSLWDTSGSPYYDNRRPLSYPDSDAVLICFDISRPETLDSVLKKWKGEIQEFCPNTKMLLVGCKSDLRTDVSTLVELSNHRQTPVSYDQGANMAKQIGAATYIECSALQSENSVRDIFHVATLACVNKTNKNVKRNKSQRATKRISHMPSRPELSAVATDLRKDKAKSCTVM", "note": "[V87R]", "values": [{"measurement": "effect of a mutation on the interaction", "setting": "[1]", "result": "disrupting interaction strength"}, {"measurement": "effect of a mutation on the interaction", "setting": "[2]", "result": "disrupting interaction strength"}]}, {"variant": "MKERRASQKLSSKSIMDPNQNVKCKIVVVGDSQCGKTALLHVFAKDCFPENYVPTVFENATASFEIDTQRIELSLWDTSGSPYYDNVRPLSYPDSDAVLICFDISRPETLDSVLKKWKGEIQEFCPNTKMLLVGCKSDLRTDVSTLVELSNHRQTPVSYDQGANMAKQIGAATYIECSALQSENSVRDIFHVATLACVNKTNKNVKRNKSQRATKRISHMPSRPELSAVATDLRKDKAKSCTVM", "note": "[Y60A]", "values": [{"measurement": "effect of a mutation on the interaction", "setting": "[1]", "result": "with no effect"}, {"measurement": "effect of a mutation on the interaction", "setting": "[2]", "result": "with no effect"}]}, {"variant": "MKERRASQKLSSKSIMDPNQNVKCKIVVVGDSQCGKTALLHVFAKDCFPENYVPTVFENYTASFEIDTQRIELSLWDTSGSPYYDNVRPRSYPDSDAVLICFDISRPETLDSVLKKWKGEIQEFCPNTKMLLVGCKSDLRTDVSTLVELSNHRQTPVSYDQGANMAKQIGAATYIECSALQSENSVRDIFHVATLACVNKTNKNVKRNKSQRATKRISHMPSRPELSAVATDLRKDKAKSCTVM", "note": "[L90R]", "values": [{"measurement": "effect of a mutation on the interaction", "setting": "[1]", "result": "disrupting interaction strength"}, {"measurement": "effect of a mutation on the interaction", "setting": "[2]", "result": "disrupting interaction strength"}]}, {"variant": "MKERRASQKLSSKSIMDPNQNVKCKIVVVGDSQCGKTALLHVFAKDCFPENYVPTVFENYTASFEIDTQRIELSLWDTSGSPYYDNVRPLSYPDSDAVLICFDISRPETLDSVLKKWKGEIQEYCPNTKMLLVGCKSDLRTDVSTLVELSNHRQTPVSYDQGANMAKQIGAATYIECSALQSENSVRDIFHVATLACVNKTNKNVKRNKSQRATKRISHMPSRPELSAVATDLRKDKAKSCTVM", "note": "[F124Y]", "values": [{"measurement": "effect of a mutation on the interaction", "setting": "[1]", "result": "with no effect"}, {"measurement": "effect of a mutation on the interaction", "setting": "[2]", "result": "with no effect"}]}]}
